Data on 23 molecules can be found in patent publication US20200392228A1 (PANDION OPERATIONS, published 2020).

The labels stand for the following.
B1: MAdCAM antibody Clone ID 62 of Table 7 (IgG) (antibody, V domains shown)
VH: QVQLVQSGAEVKKPGASVKVSCKASGYTFTSYDINWVRQAPGQGLEWMGWINPNSGTTGYAQKFQGRVTMTRDTSTSTVYMELSSLRSEDTAVYYCARSPYYYYGMDVWGQGTTVTVSS
VL: DIQMTQSPSSLSASVGDRVTITCRASHFISRWVAWYQQKPGKAPKLLIYAASTLQSGVPSRFSGSGSGTDFTLTISSLQPEDFATYYCQQSYSGISFGPGTKVDIK
notes: IgG format
B2: MAdCAM antibody Clone ID 63 of Table 7 (IgG) (antibody, V domains shown)
VH: EVQLLESGGGLVQPGGSLRLSCAASGFTFNNYGMNWVRQAPGKGLEWVSRINSDGSSTSYADSVKGRFTISRDNSKNTLYLQMNSLRAEDTAVYYCARGAYYYYYMDVWGQGTLVTVSS
VL: EIVMTQSPATLSVSPGERATLSCRASQSVSGSYLAWYQQKPGQAPRLLIYATSSRASGIPARFSGSGSGTEFTLTISSLQSEDFAVYYCQQYYSGLTFGQGTKVEIK
notes: IgG format
B3: MAdCAM antibody Clone ID 61 of Table 7 (IgG) (antibody, V domains shown)
VH: QVQLVQSGAEVKKPGASVKVSCKASGDTFTGYYIHWVRQAPGQGLEWMGWINPNSGGTNYAQKFQGRVTMTRDTSTSTVYMELSSLRSEDTAVYYCARSGLWLGSYYGMDVWGQGTLVTVSS
VL: DIQMTQSPSSLSASVGDRVTITCRASQTISIWLAWYQQKPGKAPKLLIYDASTLQSGVPSRFSGSGSGTDFTLTISSLQPEDFATYYCQQYSSYPLTFGQGTKVEIK
notes: IgG format
B4: MAdCAM antibody Clone ID 35 of Table 7 (IgG) (antibody, V domains shown)
VH: QVQLVQSGAEVKKPGASVKVSCKASGYTFTGYYIHWVRQAPGQGLEWMGWMNPNSGNTGYAQKFQGRVTMTRDTSTSTVYMELSSLRSEDTAVYYCARDPGFLGYSSGGSSYDGWFDPWGQGTLVTVSS
VL: DIQMTQSPSSLSASVGDRVTITCRASQSISSYLHWYQQKPGKAPKLLIYAASSLQSGVPSRFSGSGSGTDFTLTISSLQPEDFATYYCQQSYTAPYTFGQGTKLEIK
notes: IgG format
B5: MAdCAM antibody Clone ID 32 of Table 7 (IgG) (antibody, V domains shown)
VH: QVQLVQSGAEVKKPGASVKVSCKASGYTLTTWYMYWVRQAPGQGLEWMGWINPNRGATNYAQKFQGRVTMTRDTSTSTVYMELSSLRSEDTAVYYCAKGDLWGAMDVWGQGTLVTVSS
VL: B4 VL with Q27D, S28N, S30G, Y32W, H34A, S91G, T93S, A94T, Y96P, L104V
notes: IgG format
B6: MAdCAM antibody Clone ID 70 of Table 7 (IgG) (antibody, V domains shown)
VH: QVQLVQSGAEVKKPGASVKVSCKASGYPFTDYYMHWVRQAPGQGLEWMGWIKPNSGDTEYAQKFQGRVTMTRDTSTSTVYMELSSLRSEDTAVYYCARDRFVGKPDYYYYGMDVWGQGTMVTVSS
VL: B4 VL with S31V, Y32W, H34A, T93D, A94T
notes: IgG format
B7: MAdCAM antibody Clone ID 53 of Table 7 (IgG) (antibody, V domains shown)
VH: QVQLVQSGAEVKKPGASVKVSCKASGYTFTSYYMHWVRQAPGQGLEWMGWMNPNSGNTGYAQKFQGRVTMTRDTSTSTVYMELSSLRSEDTAVYYCAREGLGYCTNGVCWNYYGMDVWGQGTLVTVSS
VL: B4 VL with S28G, Y32W, H34A, A50G, T93S, A94T, L104V
notes: IgG format
B8: MAdCAM antibody Clone ID 12 of Table 7 (IgG) (antibody, V domains shown)
VH: B5 VH
VL: B4 VL with Q27D, S28N, S30G, Y32W, H34A, S91G, T93S, A94T, Y96P, L104V
notes: IgG format
B9: MAdCAM antibody Clone ID 69 of Table 7 (IgG) (antibody, V domains shown)
VH: QVQLVQSGAEVKKPGASVKVSCKASGYTFTSYYMHWVRQAPGQGLEWMGIIDPSGGSTSYAQKFQGRVTMTRDTSTSTVYMELSSLRSEDTAVYYCAREEWSSGGVGYFDYWGQGTLVTVSS
VL: B4 VL with S28G, H34A, A51T, S56T, S91T, T93S, A94I, Y96I, K103R
notes: IgG format
B10: MAdCAM antibody Clone ID 72 of Table 7 (IgG) (antibody, V domains shown)
VH: QVQLVQSGAEVKKPGASVKVSCKASGYTFTSYYMHWVRQAPGQGLEWMGVINPIGGTTTYAQKFQGRVTMTRDTSTSTVYMELSSLRSEDTAVYYCASGAPSYYYYGMDVWGQGTLVTVSS
VL: B4 VL with H34N, A50G, A51T, S53Y, Q55A, S56T, T93S, A94T, Y96L, L104V
notes: IgG format
B11: MAdCAM antibody Clone ID 56 of Table 7 (IgG) (antibody, V domains shown)
VH: EVQLVESGGGLVKPGGSLRLSCAASGFTFSSYWMSWVRQAPGKGLEWVSAIGTGGGTYYAAPVKGRFTISRDDSKNTLYLQMNSLKTEDTAVYYCAREWLVPYYGMDVWGQGTTVTVSS
VL: B3 VL with T28S, I31R, D50G, T53N, Y91S, S92Y, Y94T, L96W
notes: IgG format
B12: MAdCAM antibody Clone ID 40 of Table 7 (IgG) (antibody, V domains shown)
VH: B5 VH
VL: B4 VL with Q27D, S28N, S30G, Y32W, H34A, S91G, T93S, A94T, Y96P, L104V
notes: IgG format
B13: MAdCAM antibody Clone ID 71 of Table 7 (IgG) (antibody, V domains shown)
VH: QVQLVQSGAEVKKPGASVKVSCKASGYTFTSYYMHWVRQAPGQGLEWMGIINPSGGSTSYAQKFQGRVTMTRDTSTSTVYMELSSLRSEDTAVYYCARDSVAGTGGRYYGMDVWGQGTLVTVSS
VL: B4 VL with S28G, S31N, L33F, H34A, S56G, T93S, A94L
notes: IgG format
B14: MAdCAM antibody Clone ID 67 of Table 7 (IgG) (antibody, V domains shown)
VH: QVQLVQSGAEVKKPGASVKVSCKASGYTFTGYYMHWVRQAPGQGLEWMGMIYPRDGSTSYAQKFQGRVTMTRDTSTSTVYMELSSLRSEDTAVYYCAMTGWGYGMDVWGKGTTVTVSS
VL: B4 VL with S28G, S30N, S31N, H34A, A50D, S53T, T93S, Y96P
notes: IgG format
B15: MAdCAM antibody Clone ID 33 of Table 7 (IgG) (antibody, V domains shown)
VH: B5 VH with L113T
VL: B4 VL with Q27D, S28N, S30G, Y32W, H34A, S91G, T93S, A94T, Y96P, L104V
notes: IgG format
B16: MAdCAM antibody Clone ID 68 of Table 7 (IgG) (antibody, V domains shown)
VH: EVQLLESGGGLVQPGGSLRLSCAASGFTFGDYAMSWVRQAPGKGLEWVAVVSYDGTNKYYADSVKGRFTISRDNSKNTLYLQMNSLRAEDTAVYYCAKDICSSTSCYFDLWGRGTLVTVSS
VL: DIQMTQSPSSLSASVGDRVTITCRASQNINNYVNWYQQKPGKAPKLLIYDASNLETGVPSRFSGSGSGTDFTLTISSLQPEDFATYYCQQANSFPPTFGQGTRLEIK
notes: IgG format
B17: MAdCAM antibody Clone ID 66 of Table 7 (IgG) (antibody, V domains shown)
VH: QVQLVQSGAEVKKPGASVKVSCKASGYTFTGHYMHWVRQAPGQGLEWMGIINPSGGSTSYAQKFQGRVTMTRDTSTSTVYMELSSLRSEDTAVYYCARDGAWFGEEYYYGMDVWGQGTTVTVSS
VL: DIQMTQSPSSLSASVGDRVTITCRASQGISNWLAWYQQKPGKAPKLLIYDASNLETGVPSRFSGSGSGTDFTLTISSLQPEDFATYYCQQYYSFPLYTFGQGTKVEIK
notes: IgG format
B18: MAdCAM antibody Clone ID 45 of Table 7 (IgG) (antibody, V domains shown)
VH: EVQLVESGGGLVKPGGSLRLSCAASGFTFGDYAMSWVRQAPGKGLEWVSYISGDIGYTNYAAPVKGRFTISRDDSKNTLYLQMNSLKTEDTAVYYCARDVAATGNWYFDLWGRGTLVTVSS
VL: not shown
notes: IgG format
B19: MAdCAM antibody Clone ID 55 of Table 7 (IgG) (antibody, V domains shown)
VH: EVQLLESGGGLVQPGGSLRLSCAASGFTFDDFAMHWVRQAPGKGLEWVSGISGNGDSRYYADSVKGRFTISRDNSKNTLYLQMNSLRAEDTAVYYCARDASYGGNYGMDVWGQGTTVTVSS
VL: DIQMTQSPSSLSASVGDRVTITCQASQDIRNYLNWYQQKPGKAPKLLIYKASTLESGVPSRFSGSGSGTDFTLTISSLQPEDFATYYCQQANSFPLTFGPGTKVDIK
notes: IgG format
B20: MAdCAM antibody Clone ID 64 of Table 7 (IgG) (antibody, V domains shown)
VH: EVQLLESGGGLVQPGGSLRLSCAASGFTFSNSDMNWVRQAPGKGLEWVAHIWNDGSQKYYADSVKGRFTISRDNSKNTLYLQMNSLRAEDTAVYYCARDRTDPGYSSAMDVWGQGTTVTVSS
VL: B19 VL with Q24R, N34G, K50D, T53S, S56T, N92T, F94L, P100G, D105E
notes: IgG format
B21: MAdCAM antibody Clone ID 80 of Table 7 (IgG) (antibody, V domains shown)
VH: EVQLLESGGGLVQPGGSLRLSCAASGFTFDDYAMHWVRQAPGKGLEWVSAISGSGGSTYYADSVKGRFTISRDNSKNTLYLQMNSLRAEDTAVYYCAKDLGVVVPAALDYWGQGTTVTVSS
VL: B19 VL with R30S, Y32H, K50D, T53N, S56A, A91S, N92Y, F94T, P100G, D105E
notes: IgG format
B22: MAdCAM antibody Clone ID 73 of Table 7 (IgG) (antibody, V domains shown)
VH: QVQLVQSGAEVKKPGASVKVSCKASGYTFTSNYVHWVRQAPGQGLEWMGRINPHSGDTSYAQKFQGRVTMTRDTSTSTVYMELSSLRSEDTAVYYCARAGQLWSDWYFDLWGRGTLVTVSS
VL: B19 VL with K50A, S52T, T53A, E55R, S56T, A91S, N92Y, F94H, P100Q, D105E
notes: IgG format
B23: MAdCAM antibody Clone ID 54 of Table 7 (IgG) (antibody, V domains shown)
VH: QVQLVQSGAEVKKPGSSVKVSCKASGGTLSRYGVSWVRQAPGQGLEWMGGIIPIFGTTNYAQKFQGRVTITADESTSTAYMELSSLRSEDTAVYYCARDRVYYDSSGYPTWYFDLWGRGTLVTVSS
VL: EIVMTQSPATLSVSPGERATLSCRASQSVSSSYLAWYQQKPGQAPRLLIYGASTRATGIPARFSGSGSGTEFTLTISSLQSEDFAVYYCQQYGSSPITFGQGTKVEIK
notes: IgG format

Positions count from the first letter of the chain named.

This experiment has as its target T1, mouse MAdCAM expressed on cells (mouse, UniProt Q61826 22-405).
T1 construct: whole, on cells
T1 sequence (looked up): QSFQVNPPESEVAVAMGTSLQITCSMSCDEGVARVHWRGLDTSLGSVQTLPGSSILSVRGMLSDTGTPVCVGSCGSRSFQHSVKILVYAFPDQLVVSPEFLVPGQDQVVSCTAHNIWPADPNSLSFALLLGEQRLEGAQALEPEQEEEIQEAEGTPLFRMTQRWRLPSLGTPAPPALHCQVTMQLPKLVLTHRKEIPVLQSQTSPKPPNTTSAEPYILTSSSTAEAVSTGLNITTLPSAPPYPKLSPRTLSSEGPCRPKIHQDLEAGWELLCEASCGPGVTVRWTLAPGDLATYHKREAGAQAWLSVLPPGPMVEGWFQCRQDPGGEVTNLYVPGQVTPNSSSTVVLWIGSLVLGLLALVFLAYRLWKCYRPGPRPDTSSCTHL
Briefly: cell binding.
Take B1: the binding result is listed as “no binding”.
On to B2, for which the binding result is on record as “no binding”.
For the molecule B3, the binding result was “no binding”.
As to B4, the binding result is reported as “no binding”.
For B5, the binding result is given as “no binding”.
In the case of B6, the binding result was “no binding”.
For the molecule B7, the binding result is recorded as “no binding”.
Take B8: the binding result is reported as “no binding”.
Consider B9, for which the binding result is listed as “no binding”.
Regarding B10, the binding result is reported as “no binding”.
Take B11: the binding result is “no binding”.
Take B12: the binding result was “no binding”.
As to B13, the binding result is “no binding”.
As to B14, the binding result is listed as “no binding”.
On to B15, for which the binding result is reported as “no binding”.
To B16 belongs “no binding”; to B17, “no binding”; to B18, “no binding”.
To B19 belongs “no binding”; to B20, “no binding”; to B21, “no binding”.
Turning to B22, the binding result is listed as “no binding”.
Consider B23, for which the binding result is reported as “no binding”.
